In the supplement of paper PMC9170038:

tested on: K4 kissing-loop RNA reporter; test: apparent KD of K4 kissing-loop reporter; higher = weaker reporter binding; details: Eterna round: R107; input ligand: arginine 13.2 mM
Description: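 RNA-MaP round R107: designed RNA switches with theophylline, tryptophan, arginine or FMN aptamers are transcribed on-chip within common flanks. They are titrated with a labelled K4 kissing-loop RNA reporter in RNA-MaP buffer (100 mM Tris pH 7.5, 80 mM KCl, 4 mM MgCl2), without ligand or with the indicated ligand. Median apparent KD per design.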
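Also: bound reporter read as fluorescence of individual clusters on recovered sequencing chips by microscopy, with normalized cluster intensities fitted with a binding model.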

Sequence | apparent KD of K4 kissing-loop reporter [nM]
GGGAGUAGUGCGGCCGCCACUGUGAAAGAAGAAGAAUAUAGUGAUGUUAUAUAGGAAGGGAAGAAUAGGACCGGGCAUUAGAUUU [SSTRyptB.aA] | 355
CAAUGAGUAUAAGAUGAUAUCAUCACAGAAGGAGCGAGUGAUAACUCAGGUAGGUCGCUGAAUUUGUCGAGUGAUGUUCGAUAGA [whbob_SS_Arginine_A_sa119] | 173
CGGACUGCAGGAAGGAGCGGCGGACGGAGUGAUGUUCCGGGUAGUGAUGUUACCAAACACCGCCAGGUAGGUCGCCUGUUGCUCC [Same State Arginine B GF8] | 134
AUUUUUUUAUCAGGAUAUUAGUGAUGGUUUUUUUUGUUAGUGAUGUUGAUAUUUGUUUUAUGUAUUUAAGAAGGGAUUGAGAUGU [tzzsullin] | 41.2
GCGCGUCAUGUCAGCGGUGACACUGUCGAUACCAGCGCCGAAAGGCGCCCUUGGCAGCGACGUGCUGGAGUGAUGUUCCAGCGUC [#2 Exclusion - Theophylline A Attempt #24 (HarryS)] | 108
UUUCUUUUCUUUUGCGAUCCUAUCCCUUAUAAGGAUAUCUAGAAAUAGAGAAGGUAUGCAGUGAUGUUGCUUGGGAUAGGAUCGC | 275
GAAGGUCAAAGACCUUCGUGCACACCUGAUACCAGUCGCGAAAGCGACCCUUGGCAGCAGGGUAGUGAUGUUGCCAGUGCACAAA [#14 K4 Theophylline A Same State] | 735
UUCAGGUGUUCGGCCGCCACUCCAGUGAUGUUGGAGUGGCUUCACAAGGACCAGGACAAUGUAAGGAGGACCGGGAAUAUCUCAG [Vequleat] | 105
GUAGCUAAAGAAGGAUAUCGGAUCCAAAUCAAGCAGUGAUGUUGCGUGAAGAUCGGCUCCAUGCCGCGAGAAGGUCUUUUCUGUU [theeternabot_sameState_KL_FMN_B_18] | 305
AAUACUAUCAGAAGGAGCGUGGAAUAUUCAUCUGUAUCUAAUACGAGUGAUGUUCGUAAUUCACAGGUAGGUCGCUGAUUAAUAA [whbob_Ex_Arginine_B_2th157] | 275
UGACUGGACUGAAGGAGCGAGCGAGACAAAGUCUCGAAUUUUCAGUGAUGUUGAUAUAUAACUCAGGUAGGUCGCAGUCUAGUCU [ArgBS 8 #SwitchBubble #StaticStem] | 423
UUAGCAGUAUACUGCAAGACCUAUACUGAUACCAGAGUCAAUUGACUCCCUUGGCAGCGGAUCGAGUGAUGUUCGUAAGGUCAUU [AK4.2 SS Theophylline A] | 647
GGUGCGGGCUCGGCCGCCACUCCCGCGGGUCGUAAGGUCCGCUACUGAGUGAUGUUCGGUUGGAGGAGGACCGGGAGCCCGUGCC [#2 Exclusion - Tryptophan B Attempt #19 (HarryS)] | 113
AACCAGCUUACUGUAAGCUGGUUGCUGGAUACCAGCUCGGAAACGAGCCCUUGGCAGCCAGAACUUGCAGUGAUGUUGCAAGUAA [Design11] | 178
GUUGGGUGGGUUAAAGAAUUUGUCUGACAACGAGGACCGGUACGGCCGCCACUCGAGUGAUGUUCGAGAAGAAAGAAAGAAAGAA | 123
AACGGCCAGUCGGCCGCCACUCCAAGCAGUGAUGUUGCUAAGUUUCUAAAAGAGUGAUGUUCUUAGAGGACCGGGACUGAUGUAA [Exclusion Tryptophan B Gf 6] | 155
AAUUUUAAUAAUAAAUAAUAAAUAAAUGAUACCAGUAUUUUUUUUUACCCUUGGCAGCAUAUAUAAGGGCAGUGAUGUUGCCAAA [Same State - Theophylline A] | 85.2

Sequence | apparent KD of K4 kissing-loop reporter [nM]
AGUGAUAUAUGAGGAUAUGGGUUUGUUAAUGAGUUAGUUUUAGUGUUGUUUGGUUAGUGAUGUUAUUUAGAAGGCGUGAGUGAUG [vkkjkjmullin] | 79.8
UAUGGAGUGAUGUUCCGUAUGACUGUCGAUACCAGCCUGUGCCUUGGCCCUUGGCAGCGAAAAGCAUCGGCUAAUGUCGCGUCAU [Onaraed] | 191
UCAAGAGAACUUAAAUUUGAUCAACGCUCGCGAGGACCGGUACGGCCGCCACUCGACCGUUAGUGCCUCAUCCAGUGAUGUUGGG [theeternabot_sameState_KL_Trp_A_6] | 394
AUCGUUGUCUGAGGAUAUCGAUUAACUGUAGUGAUGUUACAGAAAAUUCAUAUAAUAUUUUCUAUUCGAGAAGGCAGACUACGUA [JR_ExcFMNB_Sub017] | 135
AAGAGCUAGGCGGCCGCCACUAGAUGUGAACACAUACAAGCCAGUGAUGUUGGUAUGAUGGACAGUAGGACCGGGCCUAGCUGAA [Exclusion - Tryptophan B (Freestyle 9)] | 377
AGACUACCACACUGUCAAUAGACAGUGAACUAGGAUAUGCUGAUAAGCAGAAGGAGUGAUGUUCCUAGGUAGUCAAUAAAAUAAU [FmnAX 13 #SwitchBubble #StaticStem #K4Early] | 350
GGCUUGCCAGUGAUGUUGGCAUAUUCUGAAGGAGCGCGUGAAAACGCAGGUAGGUCGCAGAACCUUGCCAACUAUUUUAGUUGCC [Ex Arginine A K4 26] | 210
CUAUCCCGCCGUGUACGUAAUAUACGGUGCCGAGGACCGGUACGGCCGCCACUCGAUAAGCUUUGUCGGAGUGAUGUUCCGACCG [Maais] | 156
GCACUCGAAAGAGUGCCUCUCGCCAUCACGUAGGAUAUCUGGAAACAGAGAAGGAUGGCAGUGAUGUUGCUUUCGAUGGCGAGAG | 137
GAUUGUGAUGGAAACAUCGCAAUCUCUGAAGGAGCGCGUGAAAACGCAGGUAGGUCGCAGGACGACUUUGACAGUGAUGUUGUCG [Ex Arginine A K4 4] | 223
AAGUGUGUGGCGGCCGCCACUAGAAUCCAGUGAUGUUGGAAUAAUCAAAUAAAUAAUAAUAAACAUAGGACCGGGCCAUAUAGAA [Same State - Tryptophan B (Freestyle 1)] | 140
AUGCGCGCGGCGGCCGCCACUCGCAUGAGAGUGAUGUUCUCGCCGUGACCGUAAGGUCGCGGUGUGAGGACCGGGCCGGGCUGCG [#2 Same State - Tryptophan B Attempt #22 (HarryS)] | 71.5
ACAGUCGGCUGUGAUACCAGUCGUAUAACAACAUGUUGCAGUGAUGUUGCGAGAUAGGAUGACCCUUGGCAGCACUCAGUACGAC [Same State Theophylline B GF11] | 101
AAAUGAAGGGCUCGCAGUGAUGUUGCGAGACGAGGACCGGUACGGCCGCCACUCGGCCGCUACUUUGACUCGGGCUUUAAGCUAC [Usarusteer] | 139
UGAUACCAGACGGCCGCCACUGCGCCAGUCAAUGACUGAGCGCGGUGGCGCUCAGUGAUGUUGAGCAGGACCGGGUCUGGUAUCU [Mod of Eli's TrypBX 8 v5] | 126
CCAUCGCUAUUCGAUACCAGCUACUUAGUGAUGUUAAGUUAAAAUCCACUGUAGGUGGAAAGCCCUUGGCAGCGAAUAGUGAUGG [Theophylline B K4 23] | 189

same assay, conditions: Eterna round: R107; input ligand: none

Sequence | apparent KD of K4 kissing-loop reporter [nM]
UUUUUAAACUCGGCCGCCACUCAAAUGGGAGUGAUGUUCCCAAAAUAAUAAAUAAAUAAUAAUAAGAGGACCGGGAGAAAUUUUU [Same State - Trytophan B] | 106
GAUAAUAGAAUAGAUACCAGUCAAGACCUAGUGAUGUUAGGGAGAUAAGUAGAAUGAAUUGGCCCUUGGCAGCUAUAAUAGUAGG [Default title] | 80.5
GCCGUACGCAUGGAUACCAGCUAUUAGAGUGAUGUUCUAUGGCCCUGCCAAUGGAGCUGUAGCCCUUGGCAGCCAUGCGUACGGC | 109
GGGAGUAGUGCGGCCGCCACUGAGAAAGUAGAAGAAUAUAGUGAUGUUAUAUAGGAAUAAAAGAACAGGACCGGGCAUUAGAUUU [SSTRyptB.U] | 230
AUAAACUUGCAGUGAUGUUGCAAGUAAGACUAGGAUAUCAGGAAACUGAGAAGGAGUCAUCUCCUUCAAACAUCACUAUGAAGGA [[K1]-[K2]-[F1]-[F2]-[F]'-[K]'-[F]''_Design5] | 384
AAUAGCCGUACUAGUGAUGUUAGUGUGGAUACCAGUUCAUGGACGAACCCUUGGCAGCCAUCAAAUAUAUAUGAGGGAUCAUCAC [theeternabot_exclusion_KL_Theo_A_47] | 309
CAUACUUGCCGACCGCGGCACGCUAGUGAUACCAGUAACACCGUCUACCCUUGGCAGCACGAGAGAGUGAUGUUUUCAGCAGCCA [theeternabot_sameState_KL_Theo_A_3] | 982
UUUGUAUCGGGAAGGAGCGUGAAUGAUAAUGGAUAUAGUGAUGUUAUAUAUAAGAACGAAUCACAGGUAGGUCGCCCGGAUGACU [SSArgB.P] | 648
UGACAUUGCUCAGAUACCAGACUUGAGGAUCACCCAGGUGCCAAAUACGUACAAAUAAAAGUCCCUUGGCAGCUGAGCAAUGUCU [TheoBX 12] | 63.1
GCCGUAGAUUGAAGGAGCGAGGCUAAUUAAAGACCGAGUGAUGUUCGGGAGCGUGAAACUCCUCAGGUAGGUCGCAAUCUACGGC | 204
GGGAGUAGUGCGGCCGCCACUGUGAAAGAAGAAGAAUAUAGUGAUGUUAUAUAGGAAGGGAAGAAUAGGACCGGGCAUUAGAUUU [SSTRyptB.aA] | 417
CAAUGAGUAUAAGAUGAUAUCAUCACAGAAGGAGCGAGUGAUAACUCAGGUAGGUCGCUGAAUUUGUCGAGUGAUGUUCGAUAGA [whbob_SS_Arginine_A_sa119] | 204
CGGACUGCAGGAAGGAGCGGCGGACGGAGUGAUGUUCCGGGUAGUGAUGUUACCAAACACCGCCAGGUAGGUCGCCUGUUGCUCC [Same State Arginine B GF8] | 170
AUUUUUUUAUCAGGAUAUUAGUGAUGGUUUUUUUUGUUAGUGAUGUUGAUAUUUGUUUUAUGUAUUUAAGAAGGGAUUGAGAUGU [tzzsullin] | 56.9
GCGCGUCAUGUCAGCGGUGACACUGUCGAUACCAGCGCCGAAAGGCGCCCUUGGCAGCGACGUGCUGGAGUGAUGUUCCAGCGUC [#2 Exclusion - Theophylline A Attempt #24 (HarryS)] | 148
UUUCUUUUCUUUUGCGAUCCUAUCCCUUAUAAGGAUAUCUAGAAAUAGAGAAGGUAUGCAGUGAUGUUGCUUGGGAUAGGAUCGC | 301
GAAGGUCAAAGACCUUCGUGCACACCUGAUACCAGUCGCGAAAGCGACCCUUGGCAGCAGGGUAGUGAUGUUGCCAGUGCACAAA [#14 K4 Theophylline A Same State] | 797
UUCAGGUGUUCGGCCGCCACUCCAGUGAUGUUGGAGUGGCUUCACAAGGACCAGGACAAUGUAAGGAGGACCGGGAAUAUCUCAG [Vequleat] | 136
GUAGCUAAAGAAGGAUAUCGGAUCCAAAUCAAGCAGUGAUGUUGCGUGAAGAUCGGCUCCAUGCCGCGAGAAGGUCUUUUCUGUU [theeternabot_sameState_KL_FMN_B_18] | 207
AAUACUAUCAGAAGGAGCGUGGAAUAUUCAUCUGUAUCUAAUACGAGUGAUGUUCGUAAUUCACAGGUAGGUCGCUGAUUAAUAA [whbob_Ex_Arginine_B_2th157] | 253
UGACUGGACUGAAGGAGCGAGCGAGACAAAGUCUCGAAUUUUCAGUGAUGUUGAUAUAUAACUCAGGUAGGUCGCAGUCUAGUCU [ArgBS 8 #SwitchBubble #StaticStem] | 543
